Test results taken from patent US20190359687A1 (Bayer, published 2019).

Columns and labels:
[1] = target: T1, human glycophorin A on human red blood cells or red blood cell membranes (human, UniProt P02724 20-150); experiment: Fab on intact human RBC, unbound Fab by ELISA; 20 min after 200-fold dilution
T1 construct: whole, on cells; also called hRBC; human RBC membranes
T1 sequence (looked up): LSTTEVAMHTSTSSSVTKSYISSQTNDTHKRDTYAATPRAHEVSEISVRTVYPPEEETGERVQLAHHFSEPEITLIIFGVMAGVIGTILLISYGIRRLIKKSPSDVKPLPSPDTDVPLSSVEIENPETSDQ
Description: (§1) The binding of affinity matured Fab antibodies to intact human RBC was also measured. Human RBC were isolated from fresh anti-coagulated normal human blood by centrifugation through a ficol gradient and washing in PBS buffer. RBC diluted to 1/10th of normal hematocrit were incubated with purified Fab antibodies at a final concentration of 7 ug/ml for 1 hour at room temperature on a rotating shaker after which a sample was taken and the RBC were pelleted by centrifugation and the supernatant was collected. The remaining RBC suspension was diluted 200-fold in PBS buffer and incubated for a total of 2 hours at room temperature on a rotating shaker and samples were removed at 0, 5 min, 20 min, 1 h and 2 h and the RBC pelleted and the supernatant collected. The amount of Fab in the supernatants was then measured using an ELISA assay and the results used to calculate the percentage of the input Fab that was bound to the RBC. […] The percentage that remains bound after 200-fold dilution of the RBC suspension is an indication of the overall strength of the binding to human RBC.

[2] = target: T2, Cynomolgus monkey glycophorin A on Cynomolgus monkey red blood cells or red blood cell membranes (Cynomolgus monkey); experiment: Fab on intact cyno RBC, unbound Fab by ELISA; 0 min after 200-fold dilution
T2 construct: whole, on cells; also called Cyno RBC; Cynomolgus monkey RBC membranes

[3] = target: T1, human glycophorin A on human red blood …; experiment: SPR (Biacore), Fab on human RBC membranes; * not accurate, instrument limit
Description: (§2) Kinetic analysis of the antibody binding to human red blood cell membranes was also performed using surface plasmon resonance (SPR) using a Biacore instrument. In this assay membranes prepared from human red blood cells were attached to a L1 sensor matrix and antibodies were flowed over the RBC membranes.
(§3) The binding kinetics of the affinity matured Fab antibodies was also measured.

[4] = target: T1, human glycophorin A on human red blood …; experiment: Fab on intact human RBC, unbound Fab by ELISA; 5 min after 200-fold dilution
Description: as §1

[5] = target: T2, Cynomolgus monkey glycophorin A on …; experiment: Fab 7 ug/ml on intact cyno RBC, unbound Fab by ELISA; pre-dilution
Description: (§4) The binding of affinity matured Fab antibodies to intact Cynomolgus monkey RBC was measured. Cynomolgus monkey RBC were isolated from fresh anti-coagulated blood by centrifugation through a ficol gradient and washing in PBS buffer. RBC diluted to 1/10th of normal hematocrit were incubated with the Fab at a final concentration of 7 ug/ml for 1 hour at room temperature on a rotating shaker after which a sample was taken and the RBC were pelleted by centrifugation and the supernatant was collected. The remaining RBC suspension was diluted 200-fold in PBS buffer and incubated for a total of 2 hours at room temperature on a rotating shaker and samples were removed at 0, 5 min, 20 min, 1 h and 2 h and the RBC pelleted and the supernatant collected. […] The amount of Fab in the supernatants was then measured using an ELISA assay and the results used to calculate the percentage of the input Fab that was bound to the RBC.

[6] = target: T2, Cynomolgus monkey glycophorin A on …; experiment: Fab on intact cyno RBC, unbound Fab by ELISA; 120 min after 200-fold dilution
Description: as §4

[7] = target: T2, Cynomolgus monkey glycophorin A on …; experiment: Fab on intact cyno RBC, unbound Fab by ELISA; 60 min after 200-fold dilution
[8] = target: T1, human glycophorin A on human red blood …; experiment: SPR (Biacore), Fab on human RBC membranes; T½ = 0.69/kd; * not accurate
Description: as §2, §3

[9] = target: T2, Cynomolgus monkey glycophorin A on …; experiment: Fab on intact cyno RBC, unbound Fab by ELISA; 5 min after 200-fold dilution
Description: as §4

[10] = target: T1, human glycophorin A on human red blood …; experiment: Fab on intact human RBC, unbound Fab by ELISA; 120 min after 200-fold dilution
Description: as §1

[11] = target: T1, human glycophorin A on human red blood …; experiment: Fab 7 ug/ml on intact human RBC, unbound Fab by ELISA; pre-dilution
[12] = target: T1, human glycophorin A on human red blood …; experiment: Fab on intact human RBC, unbound Fab by ELISA; 60 min after 200-fold dilution
[13] = target: T2, Cynomolgus monkey glycophorin A on …; experiment: Fab on intact cyno RBC, unbound Fab by ELISA; 20 min after 200-fold dilution
Description: as §4

[14] = target: T1, human glycophorin A on human red blood …; experiment: Fab on intact human RBC, unbound Fab by ELISA; 0 min after 200-fold dilution
[15] = target: T1, human glycophorin A on human red blood …; experiment: ELISA, Fab on coated human RBC membranes
[16] = target: T3, Cynomolgus monkey recombinant glycophorin A ectodomain (Cynomolgus monkey); experiment: ELISA, Fab on coated recombinant cyno GPA ectodomain
T3 construct: extracellular domain

[17] = target: T1, human glycophorin A on human red blood …; experiment: SPR (Biacore), Fab over human RBC membranes, 1:1 fit; * slight deviation possible
Description: as §2

[18] = target: T4, recombinant human glycophorin A ectodomain protein (human, UniProt P02724 20-91); experiment: ELISA, Fab on coated recombinant human GPA ectodomain
T4 construct: 72 amino acids of the extracellular region; also called Hu-rec GPA
T4 sequence: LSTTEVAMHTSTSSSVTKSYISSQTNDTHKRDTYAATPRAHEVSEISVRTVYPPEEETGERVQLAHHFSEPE

[19] = target: T5, native human glycophorin A protein (human, UniProt P02724 20-150); experiment: ELISA, Fab on coated native human GPA
T5 construct: mature; also called Hu-nat GPA
T5 sequence (looked up): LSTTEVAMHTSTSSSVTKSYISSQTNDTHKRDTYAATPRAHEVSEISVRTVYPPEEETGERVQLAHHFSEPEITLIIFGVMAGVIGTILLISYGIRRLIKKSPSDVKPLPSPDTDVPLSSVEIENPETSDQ

[20] = target: T2, Cynomolgus monkey glycophorin A on …; experiment: ELISA, Fab on coated cyno RBC membranes
[21] = target: T1, human glycophorin A on human red blood …; experiment: SPR (Biacore), Fab over human RBC membranes, 1:1 fit;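 also: human RBC membrane preparations captured on an L1 sensor surface, with antibody passed over them as analyte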
Description: as §2

B1: TPP-7794, affinity matured 6C12 Fab (Fab, V domains shown)
VH: EVQLVQSGAEVKKPGASVKVSCKASGYTFTTYAIHWVRQAPGQGLEWMGYINPSSGYTRYNPKFKHRVTMTRDKSTSTAYMELRSLRSDDTAVYYCWTGTRDYWGQGTTVTVSS
VL: DIQLTQSPSFLSASVGDRVTITCRASSSVRYIYWFQQKPGKAPKLLIYATSFRQSGVPSRFSGSGSGTEYTLTISSLQPEDFATYYCHQRNSFPYTFGQGTKLEIK
notes: Tested as Fab
percentage of input antibody bound [1]: 90%
percentage of input antibody bound [2]: 67%
Kd [3]: < 0.01 nM
koff [3]: < 2e-05 s⁻¹
kon [3]: 2.22e+07 M⁻¹ s⁻¹
percentage of input antibody bound [4]: 91%
percentage of input antibody bound [5]: 73%
percentage of input antibody bound [6]: 57%
percentage of input antibody bound [7]: 67%
Estimated T½ [8]: 922 days
percentage of input antibody bound [9]: 66%
percentage of input antibody bound [10]: 90%
percentage of input antibody bound [11]: 93%
percentage of input antibody bound [12]: 90%
percentage of input antibody bound [13]: 65%
percentage of input antibody bound [14]: 92%

B2: TPP-4935, humanized 6C12 parental Fab (Hu6C12-24) (Fab, V domains shown)
VH: EVQLVQSGAEVKKPGASVKVSCKASGYTFTTYTIHWVRQAPGQGLEWIGYINPSSDYTRYNPKFKDRVTLTTDKSTSTAYMELRSLRSDDTAVYYCQTGTRDYWGQGTTVTVSS
VL: DIQLTQSPSFLSASVGDRVTITCSAASSVSYIYWFQQKPGKAPKLLIYSTSTLPSGVPSRFSGSGSGTEYTLTISSLQPEDFATYYCHQRNSFPFTFGQGTKLEIKR
notes: also called parent Fab; TPP-4935 (Parental)
binding in ELISA relative to parental Fab [15]: 1 relative to parental Fab
binding in ELISA relative to parental Fab [16]: 1 relative to parental Fab
Kd [17]: 167 nM
koff [17]: 0.031 s⁻¹
kon [17]: 190000 M⁻¹ s⁻¹
binding in ELISA relative to parental Fab [18]: 1 relative to parental Fab
binding in ELISA relative to parental Fab [19]: 1 relative to parental Fab

B3: TPP-5841, Hu6C12-24 Fab variant VL: (S24R, A26S, S49A, P54Q, F95Y); VH: (D66G, L70M) (Fab, V domains shown)
VH: EVQLVQSGAEVKKPGASVKVSCKASGYTFTTYTIHWVRQAPGQGLEWIGYINPSSDYTRYNPKFKGRVTMTTDKSTSTAYMELRSLRSDDTAVYYCQTGTRDYWGQGTTVTVSS
VL: DIQLTQSPSFLSASVGDRVTITCRASSSVSYIYWFQQKPGKAPKLLIYATSTLQSGVPSRFSGSGSGTEYTLTISSLQPEDFATYYCHQRNSFPYTFGQGTKLEIKR
notes: Built on the parental Fab TPP-4935
binding in ELISA relative to parental Fab [15]: 11.9 relative to parental Fab
binding in ELISA relative to parental Fab [16]: 1.2 relative to parental Fab
binding in ELISA relative to parental Fab [18]: 4.7 relative to parental Fab
binding in ELISA relative to parental Fab [19]: 5.8 relative to parental Fab
binding in ELISA relative to parental Fab [20]: 2.1 relative to parental Fab
Kd [21]: 3.3 nM
koff [21]: 0.0043 s⁻¹
kon [21]: 1.3e+06 M⁻¹ s⁻¹

B4: TPP-7797, affinity matured 6C12 Fab (Fab, V domains shown)
VH: EVQLVQSGAEVKKPGASVKVSCKASGYTFTTYTIHWVRQAPGQGLEWMGYINPSSGYTRYNPKFKGRVTMTRDKSTSTAYMELRSLRSDDTAVYYCWTGRRDYWGQGTTVTVSS
VL: DIQLTQSPSFLSASVGDRVTITCRASSSVRYIYWFQQKPGKAPKLLIYATSFRQSGVPSRFSGSGSGTEYTLTISSLQPEDFATYYCHQRNSFPYTFGQGTKLEIK
notes: Tested as Fab
percentage of input antibody bound [1]: 94%
percentage of input antibody bound [2]: 81%
Kd [3]: 0.000253 nM
koff [3]: 1.64e-05 s⁻¹
kon [3]: 6.49e+07 M⁻¹ s⁻¹
percentage of input antibody bound [4]: 95%
percentage of input antibody bound [5]: 79%
percentage of input antibody bound [6]: 50%
percentage of input antibody bound [7]: 56%
Estimated T½ [8]: 0.487 days
percentage of input antibody bound [9]: 66%
percentage of input antibody bound [10]: 92%
percentage of input antibody bound [11]: 97%
percentage of input antibody bound [12]: 94%
percentage of input antibody bound [13]: 59%
percentage of input antibody bound [14]: 96%

B5: TPP-5907, humanized and germlined 6C12 Fab; VL: (S24R, A26S, S49A, P54Q, F95Y); VH: (I48M, S54G, D56G, D66G, L70M, T72R) (Fab, V domains shown)
VH: EVQLVQSGAEVKKPGASVKVSCKASGYTFTTYTIHWVRQAPGQGLEWMGYINPGSGYTRYNPKFKGRVTMTRDKSTSTAYMELRSLRSDDTAVYYCQTGTRDYWGQGTTVTVSS
VL: DIQLTQSPSFLSASVGDRVTITCRASSSVSYIYWFQQKPGKAPKLLIYATSTLQSGVPSRFSGSGSGTEYTLTISSLQPEDFATYYCHQRNSFPYTFGQGTKLEIKR
binding in ELISA relative to parental Fab [15]: 90.1 relative to parental Fab
binding in ELISA relative to parental Fab [16]: 1.4 relative to parental Fab
binding in ELISA relative to parental Fab [18]: 6.9 relative to parental Fab
binding in ELISA relative to parental Fab [19]: 12.3 relative to parental Fab
binding in ELISA relative to parental Fab [20]: 1.9 relative to parental Fab
Kd [21]: 0.8 nM
koff [21]: 0.004 s⁻¹
kon [21]: 4.9e+06 M⁻¹ s⁻¹

B6: TPP-5702, Hu6C12-24 Fab variant VL: (S24R, A26S, S49A, P54Q, F95Y) (Fab, V domains shown)
VH: EVQLVQSGAEVKKPGASVKVSCKASGYTFTTYTIHWVRQAPGQGLEWIGYINPSSDYTRYNPKFKDRVTLTTDKSTSTAYMELRSLRSDDTAVYYCQTGTRDYWGQGTTVTVSS
VL: DIQLTQSPSFLSASVGDRVTITCRASSSVSYIYWFQQKPGKAPKLLIYATSTLQSGVPSRFSGSGSGTEYTLTISSLQPEDFATYYCHQRNSFPYTFGQGTKLEIKR
notes: as for B3
binding in ELISA relative to parental Fab [15]: 10.2 relative to parental Fab
binding in ELISA relative to parental Fab [16]: 1.1 relative to parental Fab
binding in ELISA relative to parental Fab [18]: 4.3 relative to parental Fab
binding in ELISA relative to parental Fab [19]: 5.2 relative to parental Fab
binding in ELISA relative to parental Fab [20]: 1.1 relative to parental Fab
Kd [21]: 170 nM
koff [21]: 0.11 s⁻¹
kon [21]: 650000 M⁻¹ s⁻¹

B7: TPP-5835, Hu6C12-24 Fab variant VL: (S24R, A26S, S49A, P54Q, F95Y); VH: (I48M, L70M) (Fab, V domains shown)
VH: EVQLVQSGAEVKKPGASVKVSCKASGYTFTTYTIHWVRQAPGQGLEWMGYINPSSDYTRYNPKFKDRVTMTTDKSTSTAYMELRSLRSDDTAVYYCQTGTRDYWGQGTTVTVSS
VL: DIQLTQSPSFLSASVGDRVTITCRASSSVSYIYWFQQKPGKAPKLLIYATSTLQSGVPSRFSGSGSGTEYTLTISSLQPEDFATYYCHQRNSFPYTFGQGTKLEIKR
notes: as for B3
binding in ELISA relative to parental Fab [15]: 10.3 relative to parental Fab
binding in ELISA relative to parental Fab [16]: 1.1 relative to parental Fab
binding in ELISA relative to parental Fab [18]: 4.3 relative to parental Fab
binding in ELISA relative to parental Fab [19]: 5.2 relative to parental Fab
binding in ELISA relative to parental Fab [20]: 1.4 relative to parental Fab

B8: TPP-5839, Hu6C12-24 Fab variant VL: (S24R, A26S, S49A, P54Q, F95Y); VH: (I48M, D66G, L70M, T72R) (Fab, V domains shown)
VH: EVQLVQSGAEVKKPGASVKVSCKASGYTFTTYTIHWVRQAPGQGLEWMGYINPSSDYTRYNPKFKGRVTMTRDKSTSTAYMELRSLRSDDTAVYYCQTGTRDYWGQGTTVTVSS
VL: DIQLTQSPSFLSASVGDRVTITCRASSSVSYIYWFQQKPGKAPKLLIYATSTLQSGVPSRFSGSGSGTEYTLTISSLQPEDFATYYCHQRNSFPYTFGQGTKLEIKR
notes: as for B3
binding in ELISA relative to parental Fab [15]: 5.8 relative to parental Fab
binding in ELISA relative to parental Fab [16]: 1.2 relative to parental Fab
binding in ELISA relative to parental Fab [18]: 4.7 relative to parental Fab
binding in ELISA relative to parental Fab [19]: 5.8 relative to parental Fab
binding in ELISA relative to parental Fab [20]: 2.3 relative to parental Fab
Kd [21]: 1.6 nM
koff [21]: 0.0035 s⁻¹
kon [21]: 2.1e+06 M⁻¹ s⁻¹
